Measured values as given in IntAct's records for PubMed 22668317.

B1: LPS-assembly protein LptD (Escherichia coli (strain K12)), P31554 (parent)
chain: MKKRIPTLLATMIATALYSQQGLAADLASQCMLGVPSYDRPLVQGDTNDLPVTINADHAKGDYPDDAVFTGSVDIMQGNSRLQADEVQLHQKEAPGQPEPVRTVDALGNVHYDDNQVILKGPKGWANLNTKDTNVWEGDYQMVGRQGRGKADLMKQRGENRYTILDNGSFTSCLPGSDTWSVVGSEIIHDREEQVAEIWNARFKVGPVPIFYSPYLQLPVGDKRRSGFLIPNAKYTTTNYFEFYLPYYWNIAPNMDATITPHYMHRRGNIMWENEFRYLSQAGAGLMELDYLPSDKVYEDEHPNDDSSRRWLFYWNHSGVMDQVWRFNVDYTKVSDPSYFNDFDNKYGSSTDGYATQKFSVGYAVQNFNATVSTKQFQVFSEQNTSSYSAEPQLDVNYYQNDVGPFDTRIYGQAVHFVNTRDDMPEATRVHLEPTINLPLSNNWGSINTEAKLLATHYQQTNLDWYNSRNTTKLDESVNRVMPQFKVDGKMVFERDMEMLAPGYTQTLEPRAQYLYVPYRDQSDIYNYDSSLLQSDYSGLFRDRTYGGLDRIASANQVTTGVTSRIYDDAAVERFNISVGQIYYFTESRTGDDNITWENDDKTGSLVWAGDTYWRISERWGLRGGIQYDTRLDNVATSNSSIEYRRDEDRLVQLNYRYASPEYIQATLPKYYSTAEQYKNGISQVGAVASWPIADRWSIVGAYYYDTNANKQADSMLGVQYSSCCYAIRVGYERKLNGWDNDKQHAVYDNAIGFNIELRGLSSNYGLGTQEMLRSNILPYQNTL
partner: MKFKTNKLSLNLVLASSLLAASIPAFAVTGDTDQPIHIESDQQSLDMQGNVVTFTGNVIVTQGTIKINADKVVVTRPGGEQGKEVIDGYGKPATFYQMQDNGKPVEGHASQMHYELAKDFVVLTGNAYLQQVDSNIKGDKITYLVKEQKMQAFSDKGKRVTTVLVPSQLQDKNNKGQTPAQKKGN

Variants of: B1
Conditions: with lpta_ecoli lptA

Row | Variant | effect of a mutation on the interaction
1 | C31S;C173S | disrupting interaction
2 | C724S;C725S | disrupting interaction
3 | C31S;C725S | disrupting interaction
